From patent publication US20250281598 come the findings set out here.

Series [1] concerns 2G12 (anti-HIV gp120 broadly neutralizing antibody). The experiment in a line: filter. Particulars: 2'-F pyrimidines, every U is 2'-F-5-ethynyl-U clicked to Man9-cyclohexyl azide (3 glycans).
Series [2] has the same test system. The experiment in a line: pulldown. As to conditions: 2'-F pyrimidines, qPCR bead assay as glyco-RNA/DNA hybrid. For orientation: Real-time PCR tracks product formation cycle by cycle.
Series [3] has the same test system. Put plainly: FP filter. Particulars: 2'-F pyrimidines; every U is 2'-F-5-ethynyl-U clicked to Man9-cyclohexyl azide (4 glycans); nitrocellulose filter binding, 32P RNA not gel purified; 20 mM Tris pH 7.5, 150 mM NaCl, 2 mM MgSO4; Fbmax 7.0%.

For orientation: Kd means the constant that tells how readily two partners part at equilibrium. High values mean a looser complex, low ones a tighter complex. The sequence “GGAGAGAAGGAGGGAAGAGAGAAAAAAAAAAGCGCCCAGGUGAUUGGGCGCAAGCGACACAAAGCCCGG [15F3-M1-Mod]” displayed a dissociation constant Kd in series [1] (gel purified and refolded, Fbmax 51%) of 36 nM.

In series [2] (every U is 2'-F-5-ethynyl-U clicked to Man9-cyclohexyl azide (3 glycans), Fbmax 1.1%), “GGAGAGAAGGAGGGAAGAGAGAAAAAAAACAGAGGGAACCCAGGUGAUUGGGGCAAGCGACACAAAGCCCGG [15F3-M1]” gave a Kd of 31 nM.

On to “GGAGAGAAGGAGGGAAGAGAGAAAAAAAACAUAGGGAACCCAGGUGAUUGGGGCAAGCGACACAAAGCCCGG [15F3]”, for which the Kd in series [2] (every U is 2'-F-5-ethynyl-U clicked to Man9-cyclohexyl azide (4 glycans), room temperature, Fbmax 3.8%) is 19 nM; in series [3] it was 13 nM.

Turning to “GGAGAGAAGGAGGGAAGAGAGAAAAAAUCGACGGAACAGGGGCCCCCUGUGGAAAGCGACACAAAGCCCGG [15F1]”, the Kd in series [1] (20 mM Tris pH 7.5, 150 mM NaCl, 2 mM MgSO4, not gel purified, Fbmax 23%) is 40 nM; in series [2] (every U is 2'-F-5-ethynyl-U clicked to Man9-cyclohexyl azide (3 glycans), room temperature, Fbmax 7.9%), 40 nM.
